Source: patent US20140037621A1 (JN BIOSCIENCES, published 2014)

These binders were tested against T1, CD30 on the surface of Karpas 299 cells (human, UniProt P28908 19-595) (assay: cell-based or functional assay).
T1 sequence (looked up): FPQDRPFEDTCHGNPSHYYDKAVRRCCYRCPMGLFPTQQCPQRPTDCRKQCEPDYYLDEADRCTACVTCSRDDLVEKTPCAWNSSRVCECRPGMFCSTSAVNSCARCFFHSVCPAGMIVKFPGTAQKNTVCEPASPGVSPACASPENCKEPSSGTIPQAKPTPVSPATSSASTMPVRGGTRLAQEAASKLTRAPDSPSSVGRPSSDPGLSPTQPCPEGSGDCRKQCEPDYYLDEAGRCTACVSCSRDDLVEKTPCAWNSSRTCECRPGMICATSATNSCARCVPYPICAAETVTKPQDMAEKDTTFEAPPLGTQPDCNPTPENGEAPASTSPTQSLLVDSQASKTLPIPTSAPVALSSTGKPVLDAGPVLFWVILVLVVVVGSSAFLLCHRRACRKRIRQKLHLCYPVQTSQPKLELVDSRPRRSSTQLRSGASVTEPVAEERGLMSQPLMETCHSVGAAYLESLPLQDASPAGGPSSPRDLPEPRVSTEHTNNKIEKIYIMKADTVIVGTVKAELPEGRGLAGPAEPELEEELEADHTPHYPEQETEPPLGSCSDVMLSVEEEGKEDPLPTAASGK

Binder | growth level of Karpas 299 cells (percent cell growth, WST-8, 2 µg/ml antibody, 5 days) [%]
ChSan11 IgG1/kappa antibody (mouse-human chimeric anti-human CD30) (antibody) heavy: not shown VL: DIVLTQSPASLAVSLGQRATISCRASESVEYYGTGLMQWYQQKPGQPPKLLIYSASNVESGVPARFTGSGSGTDFSLNIHPVEEDDIAMYFCQQSRKVPWTFGGGTKLEIKR | 106
ChSan11.L309-Fcµtp multimer (antibody, human IgG1) heavy: not shown VL: DIVLTQSPASLAVSLGQRATISCRASESVEYYGTGLMQWYQQKPGQPPKLLIYSASNVESGVPARFTGSGSGTDFSLNIHPVEEDDIAMYFCQQSRKVPWTFGGGTKLEIKR | 38
ChSan11.V279-Fcµtp multimer (antibody, human IgG1) heavy: not shown VL: DIVLTQSPASLAVSLGQRATISCRASESVEYYGTGLMQWYQQKPGQPPKLLIYSASNVESGVPARFTGSGSGTDFSLNIHPVEEDDIAMYFCQQSRKVPWTFGGGTKLEIKR | 41
ChSan11.H285-Fcµtp multimer (antibody, human IgG1) heavy: not shown VL: DIVLTQSPASLAVSLGQRATISCRASESVEYYGTGLMQWYQQKPGQPPKLLIYSASNVESGVPARFTGSGSGTDFSLNIHPVEEDDIAMYFCQQSRKVPWTFGGGTKLEIKR | 39
ChSan11.A287-Fcµtp multimer (antibody, human IgG1) heavy: not shown VL: DIVLTQSPASLAVSLGQRATISCRASESVEYYGTGLMQWYQQKPGQPPKLLIYSASNVESGVPARFTGSGSGTDFSLNIHPVEEDDIAMYFCQQSRKVPWTFGGGTKLEIKR | 43

Each binder was assayed against death receptor 4 (DR4) on the cell surface (Ramos, Colo-205, RPMI 8226 cells) (human, UniProt O00220 24-468) (assay: cell-based or functional assay).

Binder | cell viability of Ramos cells at 100 ng/ml of antibody (alamarBlue) [%] | cell killing of Ramos cells at 100 ng/ml of antibody (alamarBlue) [%] | viability of Colo-205 cells at 100 ng/ml of antibody (alamarBlue) [%]
HuYON007.V279-Fcµtp monomer (antibody, human IgG1, lambda) heavy: not shown light: QTVVTQEPSFSVSPGGTVTLTCRSSSGAVTTSNFANWVQQTPGQAPRGLIGGTNNRAPGVPDRFSGSILGNKAALTITGAQADDESDYYCALWYSNHWVFGGGTKLTVLGQPKAAPSVTLFPPSSEELQANKATLVCLISDFYPGAVTVAWKADSSPVKAGVETTTPSKQSNNKYAASSYLSLTPEQWKSHRSYSCQVTHEGSTVEKTVAPTECS | 80 |  | 
HuYON007.L309-Fcµtp multimer (antibody, human IgG1, lambda) heavy: not shown light: QTVVTQEPSFSVSPGGTVTLTCRSSSGAVTTSNFANWVQQTPGQAPRGLIGGTNNRAPGVPDRFSGSILGNKAALTITGAQADDESDYYCALWYSNHWVFGGGTKLTVLGQPKAAPSVTLFPPSSEELQANKATLVCLISDFYPGAVTVAWKADSSPVKAGVETTTPSKQSNNKYAASSYLSLTPEQWKSHRSYSCQVTHEGSTVEKTVAPTECS |  | ~100 | < 35
HuYON007.A287-Fcµtp monomer (antibody, human IgG1, lambda) heavy: not shown light: QTVVTQEPSFSVSPGGTVTLTCRSSSGAVTTSNFANWVQQTPGQAPRGLIGGTNNRAPGVPDRFSGSILGNKAALTITGAQADDESDYYCALWYSNHWVFGGGTKLTVLGQPKAAPSVTLFPPSSEELQANKATLVCLISDFYPGAVTVAWKADSSPVKAGVETTTPSKQSNNKYAASSYLSLTPEQWKSHRSYSCQVTHEGSTVEKTVAPTECS | 83 |  | 
HuYON007.A287-Fcµtp multimer (antibody, human IgG1, lambda) heavy: not shown light: QTVVTQEPSFSVSPGGTVTLTCRSSSGAVTTSNFANWVQQTPGQAPRGLIGGTNNRAPGVPDRFSGSILGNKAALTITGAQADDESDYYCALWYSNHWVFGGGTKLTVLGQPKAAPSVTLFPPSSEELQANKATLVCLISDFYPGAVTVAWKADSSPVKAGVETTTPSKQSNNKYAASSYLSLTPEQWKSHRSYSCQVTHEGSTVEKTVAPTECS |  | ~100 | < 35
HuYON007.L309-Fcµtp monomer (antibody, human IgG1, lambda) heavy: not shown light: QTVVTQEPSFSVSPGGTVTLTCRSSSGAVTTSNFANWVQQTPGQAPRGLIGGTNNRAPGVPDRFSGSILGNKAALTITGAQADDESDYYCALWYSNHWVFGGGTKLTVLGQPKAAPSVTLFPPSSEELQANKATLVCLISDFYPGAVTVAWKADSSPVKAGVETTTPSKQSNNKYAASSYLSLTPEQWKSHRSYSCQVTHEGSTVEKTVAPTECS | 92 |  | 
HuYON007.V279-Fcµtp multimer (antibody, human IgG1, lambda) heavy: not shown light: QTVVTQEPSFSVSPGGTVTLTCRSSSGAVTTSNFANWVQQTPGQAPRGLIGGTNNRAPGVPDRFSGSILGNKAALTITGAQADDESDYYCALWYSNHWVFGGGTKLTVLGQPKAAPSVTLFPPSSEELQANKATLVCLISDFYPGAVTVAWKADSSPVKAGVETTTPSKQSNNKYAASSYLSLTPEQWKSHRSYSCQVTHEGSTVEKTVAPTECS |  | ~100 | < 35
HuYON007.H285-Fcµtp multimer (antibody, human IgG1, lambda) heavy: not shown light: QTVVTQEPSFSVSPGGTVTLTCRSSSGAVTTSNFANWVQQTPGQAPRGLIGGTNNRAPGVPDRFSGSILGNKAALTITGAQADDESDYYCALWYSNHWVFGGGTKLTVLGQPKAAPSVTLFPPSSEELQANKATLVCLISDFYPGAVTVAWKADSSPVKAGVETTTPSKQSNNKYAASSYLSLTPEQWKSHRSYSCQVTHEGSTVEKTVAPTECS |  | ~100 | < 35
HuYON007.H285-Fcµtp monomer (antibody, human IgG1, lambda) heavy: not shown light: QTVVTQEPSFSVSPGGTVTLTCRSSSGAVTTSNFANWVQQTPGQAPRGLIGGTNNRAPGVPDRFSGSILGNKAALTITGAQADDESDYYCALWYSNHWVFGGGTKLTVLGQPKAAPSVTLFPPSSEELQANKATLVCLISDFYPGAVTVAWKADSSPVKAGVETTTPSKQSNNKYAASSYLSLTPEQWKSHRSYSCQVTHEGSTVEKTVAPTECS | 91 |  | 
